T1: human TL1A extracellular domain with N-terminal HIS and FLAG tag (human, UniProt O95150 72-251)
T1 construct: the whole entry is named
T1 sequence: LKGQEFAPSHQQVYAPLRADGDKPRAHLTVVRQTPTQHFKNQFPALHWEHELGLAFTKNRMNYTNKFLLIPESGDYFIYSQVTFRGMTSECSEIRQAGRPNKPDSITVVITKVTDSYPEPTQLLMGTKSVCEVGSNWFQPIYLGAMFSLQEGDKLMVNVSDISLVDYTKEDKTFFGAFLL


Columns and labels:
[1] = biological target: T1, human TL1A extracellular domain with …; assay: SPR Run 4, purified Ab captured on Protein A, TL1A 5 ug/mL, timepoint 44
Excerpt: (§1) 1.5. Antibody expression and antigen binding as determined by SPR. Using a CM5 sensor chip (GE Healthcare) Protein A (Pierce) was coupled to the chip surface using an amine coupling kit (GE Healthcare). Protein A was coupled on flow cell 1 and 2 (or alternatively 3 and 4) using a BIACORE® T200. […] The amount of supernatant or purified protein (as well as the concentration) injected during the capture stage varied between runs and is specified in the header of the Tables 3-11. At the end of injection of the supernatant or purified antibody the change in response units was measured. This value was reported as Capture Level in Tables 3-11. […] The response units were measured prior to the end of the dissociation phase. […] The sensorgrams were double referenced (flow cell 2 is subtracted from flow cell 1 and a buffer blank). As there were a large number of antibody variants to screen, these were screened across different runs (Tables 3-11). […] A summary of the conditions used in each run is below:
(§2) 2.1. […] In some experiment the antibodies were purified using Protein A chromatography (See 1.4) and purified antibodies were used in BIACORE® (GE Healthcare) experiments.

[2] = biological target: T1, human TL1A extracellular domain with …; assay: SPR Run 4, purified Ab captured on Protein A, TL1A 5 ug/mL, timepoint 220
Excerpt: as §1, §2

Binder	TL1A Binding Level (Early) [1] [RU]	TL1A Binding Level (Late) [2] [RU]
320-347 (antibody, human IgG1, name in Kabat numbering, V domains shown, human IgG1, lambda) VH: QVQLVQSGAEVKKPGASVKVSCKASGYTFTSYDINWVRQAPGQGLEWMGWLNPNSGNTGYAQKFQGRVTMTADRSTSTAYMELSSLRSEDTAVYYCAREVPETAAFEYWGQGTLVTVSS VL: QSVLTQPPSVSGAPGQRVTISCTSSSSDIGAGLGVHWYQQLPGTAPKLLIEGYYNRPSGVPDRFSGSKSGTSASLTITGLLPEDEGDYYCQSYDWTLSALFGGGTKLTVLG	149	130
320-359 (antibody, human IgG1, name in Kabat numbering, V domains shown, human IgG1, lambda) VH: QVQLVQSGAEVKKPGASVKVSCKASGYTFTSYDINWVRQAPGQGLEWMGWLNPNSGNTGYAQKFQGRVTMTADRSTSTAYMELSSLRSEDTAVYYCAREVPETAAFEYWGQGTLVTVSS VL: QSVLTQPPSVSGAPGQRVTISCTSSSSDIGAGLGVHWYQQLPGTAPKLLIEGYYNRPSGVPDRFSGSKSGTSASLTITGLLPEDEGDYYCQSYDGTSSALFGGGTKLTVLG	57	27
320-348 (antibody, human IgG1, name in Kabat numbering, V domains shown, human IgG1, lambda) VH: QVQLVQSGAEVKKPGASVKVSCKASGYTFTSYDINWVRQAPGQGLEWMGWLNPNSGNTGYAQKFQGRVTMTADRSTSTAYMELSSLRSEDTAVYYCAREVPETAAFEYWGQGTLVTVSS VL: QSVLTQPPSVSGAPGQRVTISCTSSSSDIGAGLGVHWYQQLPGTAPKLLIEGYYNRPSGVPDRFSGSKSGTSASLTITGLLPEDEGDYYCQSYDYTLSALFGGGTKLTVLG	144	127
320-357 (antibody, human IgG1, name in Kabat numbering, V domains shown, human IgG1, lambda) VH: QVQLVQSGAEVKKPGASVKVSCKASGYTFTSYDINWVRQAPGQGLEWMGWLNPNSGNTGYAQKFQGRVTMTADRSTSTAYMELSSLRSEDTAVYYCAREVPETAAFEYWGQGTLVTVSS VL: QSVLTQPPSVSGAPGQRVTISCTSSSSDIGAGLGVHWYQQLPGTAPKLLIEGYYNRPSGVPDRFSGSKSGTSASLTITGLLPEDEGDYYCQSYDGYLSALFGGGTKLTVLG	119	91
320-351 (antibody, human IgG1, name in Kabat numbering, V domains shown, human IgG1, lambda) VH: QVQLVQSGAEVKKPGASVKVSCKASGYTFTSYDINWVRQAPGQGLEWMGWLNPNSGNTGYAQKFQGRVTMTADRSTSTAYMELSSLRSEDTAVYYCAREVPETAAFEYWGQGTLVTVSS VL: QSVLTQPPSVSGAPGQRVTISCTSSSSDIGAGLGVHWYQQLPGTAPKLLIEGYYNRPSGVPDRFSGSKSGTSASLTITGLLPEDEGDYYCQSYDGQLSALFGGGTKLTVLG	112	83
320-358 (antibody, human IgG1, name in Kabat numbering, V domains shown, human IgG1, lambda) VH: QVQLVQSGAEVKKPGASVKVSCKASGYTFTSYDINWVRQAPGQGLEWMGWLNPNSGNTGYAQKFQGRVTMTADRSTSTAYMELSSLRSEDTAVYYCAREVPETAAFEYWGQGTLVTVSS VL: QSVLTQPPSVSGAPGQRVTISCTSSSSDIGAGLGVHWYQQLPGTAPKLLIEGYYNRPSGVPDRFSGSKSGTSASLTITGLLPEDEGDYYCQSYDGTASALFGGGTKLTVLG	82	50
320-353 (antibody, human IgG1, name in Kabat numbering, V domains shown, human IgG1, lambda) VH: QVQLVQSGAEVKKPGASVKVSCKASGYTFTSYDINWVRQAPGQGLEWMGWLNPNSGNTGYAQKFQGRVTMTADRSTSTAYMELSSLRSEDTAVYYCAREVPETAAFEYWGQGTLVTVSS VL: QSVLTQPPSVSGAPGQRVTISCTSSSSDIGAGLGVHWYQQLPGTAPKLLIEGYYNRPSGVPDRFSGSKSGTSASLTITGLLPEDEGDYYCQSYDGHLSALFGGGTKLTVLG	97	73
320-350 (antibody, human IgG1, name in Kabat numbering, V domains shown, human IgG1, lambda) VH: QVQLVQSGAEVKKPGASVKVSCKASGYTFTSYDINWVRQAPGQGLEWMGWLNPNSGNTGYAQKFQGRVTMTADRSTSTAYMELSSLRSEDTAVYYCAREVPETAAFEYWGQGTLVTVSS VL: QSVLTQPPSVSGAPGQRVTISCTSSSSDIGAGLGVHWYQQLPGTAPKLLIEGYYNRPSGVPDRFSGSKSGTSASLTITGLLPEDEGDYYCQSYDGSLSALFGGGTKLTVLG	130	118
320-364 (antibody, human IgG1, name in Kabat numbering, V domains shown, human IgG1, lambda) VH: QVQLVQSGAEVKKPGASVKVSCKASGYTFTSYDINWVRQAPGQGLEWMGWLNPNSGNTGYAQKFQGRVTMTADRSTSTAYMELSSLRSEDTAVYYCAREVPETAAFEYWGQGTLVTVSS VL: QSVLTQPPSVSGAPGQRVTISCTSSSSDIGAGLGVHWYQQLPGTAPKLLIEGYYNRPSGVPDRFSGSKSGTSASLTITGLLPEDEGDYYCQSYDGTLAALFGGGTKLTVLG	124	109
320-366 (antibody, human IgG1, name in Kabat numbering, V domains shown, human IgG1, lambda) VH: QVQLVQSGAEVKKPGASVKVSCKASGYTFTSYDINWVRQAPGQGLEWMGWLNPNSGNTGYAQKFQGRVTMTADRSTSTAYMELSSLRSEDTAVYYCAREVPETAAFEYWGQGTLVTVSS VL: QSVLTQPPSVSGAPGQRVTISCTSSSSDIGAGLGVHWYQQLPGTAPKLLIEGYYNRPSGVPDRFSGSKSGTSASLTITGLLPEDEGDYYCQSYDGTLDALFGGGTKLTVLG	62	31
320-349 (antibody, human IgG1, name in Kabat numbering, V domains shown, human IgG1, lambda) VH: QVQLVQSGAEVKKPGASVKVSCKASGYTFTSYDINWVRQAPGQGLEWMGWLNPNSGNTGYAQKFQGRVTMTADRSTSTAYMELSSLRSEDTAVYYCAREVPETAAFEYWGQGTLVTVSS VL: QSVLTQPPSVSGAPGQRVTISCTSSSSDIGAGLGVHWYQQLPGTAPKLLIEGYYNRPSGVPDRFSGSKSGTSASLTITGLLPEDEGDYYCQSYDGALSALFGGGTKLTVLG	112	88
320-365 (antibody, human IgG1, name in Kabat numbering, V domains shown, human IgG1, lambda) VH: QVQLVQSGAEVKKPGASVKVSCKASGYTFTSYDINWVRQAPGQGLEWMGWLNPNSGNTGYAQKFQGRVTMTADRSTSTAYMELSSLRSEDTAVYYCAREVPETAAFEYWGQGTLVTVSS VL: QSVLTQPPSVSGAPGQRVTISCTSSSSDIGAGLGVHWYQQLPGTAPKLLIEGYYNRPSGVPDRFSGSKSGTSASLTITGLLPEDEGDYYCQSYDGTLQALFGGGTKLTVLG	141	128
320-356 (antibody, human IgG1, name in Kabat numbering, V domains shown, human IgG1, lambda) VH: QVQLVQSGAEVKKPGASVKVSCKASGYTFTSYDINWVRQAPGQGLEWMGWLNPNSGNTGYAQKFQGRVTMTADRSTSTAYMELSSLRSEDTAVYYCAREVPETAAFEYWGQGTLVTVSS VL: QSVLTQPPSVSGAPGQRVTISCTSSSSDIGAGLGVHWYQQLPGTAPKLLIEGYYNRPSGVPDRFSGSKSGTSASLTITGLLPEDEGDYYCQSYDGWLSALFGGGTKLTVLG	109	86
320-354 (antibody, human IgG1, name in Kabat numbering, V domains shown, human IgG1, lambda) VH: QVQLVQSGAEVKKPGASVKVSCKASGYTFTSYDINWVRQAPGQGLEWMGWLNPNSGNTGYAQKFQGRVTMTADRSTSTAYMELSSLRSEDTAVYYCAREVPETAAFEYWGQGTLVTVSS VL: QSVLTQPPSVSGAPGQRVTISCTSSSSDIGAGLGVHWYQQLPGTAPKLLIEGYYNRPSGVPDRFSGSKSGTSASLTITGLLPEDEGDYYCQSYDGKLSALFGGGTKLTVLG	53	30
320-352 (antibody, human IgG1, name in Kabat numbering, V domains shown, human IgG1, lambda) VH: QVQLVQSGAEVKKPGASVKVSCKASGYTFTSYDINWVRQAPGQGLEWMGWLNPNSGNTGYAQKFQGRVTMTADRSTSTAYMELSSLRSEDTAVYYCAREVPETAAFEYWGQGTLVTVSS VL: QSVLTQPPSVSGAPGQRVTISCTSSSSDIGAGLGVHWYQQLPGTAPKLLIEGYYNRPSGVPDRFSGSKSGTSASLTITGLLPEDEGDYYCQSYDGDLSALFGGGTKLTVLG	101	63
320-360 (antibody, human IgG1, name in Kabat numbering, V domains shown, human IgG1, lambda) VH: QVQLVQSGAEVKKPGASVKVSCKASGYTFTSYDINWVRQAPGQGLEWMGWLNPNSGNTGYAQKFQGRVTMTADRSTSTAYMELSSLRSEDTAVYYCAREVPETAAFEYWGQGTLVTVSS VL: QSVLTQPPSVSGAPGQRVTISCTSSSSDIGAGLGVHWYQQLPGTAPKLLIEGYYNRPSGVPDRFSGSKSGTSASLTITGLLPEDEGDYYCQSYDGTQSALFGGGTKLTVLG	86	53
320-355 (antibody, human IgG1, name in Kabat numbering, V domains shown, human IgG1, lambda) VH: QVQLVQSGAEVKKPGASVKVSCKASGYTFTSYDINWVRQAPGQGLEWMGWLNPNSGNTGYAQKFQGRVTMTADRSTSTAYMELSSLRSEDTAVYYCAREVPETAAFEYWGQGTLVTVSS VL: QSVLTQPPSVSGAPGQRVTISCTSSSSDIGAGLGVHWYQQLPGTAPKLLIEGYYNRPSGVPDRFSGSKSGTSASLTITGLLPEDEGDYYCQSYDGLLSALFGGGTKLTVLG	102	76
